Measurements reported in patent US11851495 (Boehringer Ingelheim, dated 2023).

Target: T1, cadherin-17 (CDH17) (human, UniProt Q12864 23-832)
T1 construct: whole, on cells; not detected on HepG2 cells
Assay: flow cytometry (FACS) on Colo-205 cells, antibody as primary reagent
Experimental: TRAILR2 and CDH17 protein surface expression on the Colo-205 cells was analyzed as follows. Cells were detached using Accutase (Sigma A6964) and washed twice with FACS buffer (PBS, Gibco 14190; 3% FCS, Gibco 26140; and 0.09% NaN_3, Sigma Aldrich S2002).
After seeding the cells, the plate was centrifuged at 1200 rpm for 5 minutes and the supernatant were discarded. Cells were then incubated for 60 min at 4° C. with 100p/well of the primary antibody appropriated dilution. Cells were washed twice with FACS buffer and 100p/well of the appropriated dilution of secondary/conjugated antibodies was added. Cells with secondary antibodies were incubated for 45 min at 4° C. in the dark. After two washes with FACS buffer, cells were resuspended in 100p FACS buffer per well and analyzed in a FACS Canto (BD Biosciences).
Example 12: Detection of CDH17 Surface Expression Using Newly Generated CDH17 Antibodies In FIG. 13 is shown how the newly generated anti-CDH17H2 antibody (comprising a VH of SEQ ID NO: 116 and a VL of SEQ ID NO: 117 and an IgG1 sequence of SEQ ID NO: 121) is able to detect CDH17 protein surface expression. FACS analysis was performed as described in Example 6. The newly generated anti-CDH17H2 antibody was used as primary antibody for detection, followed by a secondary antibody rabbit anti-mouse IgG PE (Dako, R0439). […]

binding result: binds
B1: anti-CDH17H2 antibody (antibody, V domains shown)
VH: QVQLVQSGAEVKKPGSSVKVSCKVSGYTFTDHTIHWMKQRPGQGLEWIGYIYPRDVITQYNEKFKGKVTLTADKSTSTAYMELSSLRSEDTAVYLCARWGYFYGSRSYYFDYWGQGTTVTVSS
VL: DIQMTQSQSSLSASVGDRVGITCKASQNVGTAVAWYQQKPGKAPKLLIYSASNRYTGVPSRFSGSGSGTDFTLTISSLQPKDFATYFCQQYSSYPWTFGQGTKLEIK
notes: also called parental CDH17 antibody
